# PMC8501640, “Altered Env conformational dynamics as a mechanism of resistance to peptide-triazole HIV-1 inactivators” (Retrovirology, 2021)
# Experiments:
# HxBc2 gp120 WT monomer = HxBc2 gp120 WT monomer (Human immunodeficiency virus type 1 group M subtype B, UniProt P04578); assay: Isothermal titration calorimetry, WT gp120; assay type: binding, HIV-1; settings: 25 °C
# Protocol: (§1) Heats were obtained at 25 °C by injection of 8 μL of PT (100 μM) into a sample cell of a VP-ITC containing 1.4 mL recombinant HxBc2 gp120 (6–8 μM). Solid lines represent fits to a single site binding model.
# (§2) The resulting heat changes upon injection were integrated over a time range of 240 s, and the obtained values were fit to a standard single site-binding model using Origin® software.
# [1] = biological target: HxBc2 gp120 V255I monomer (Human immunodeficiency virus type 1 group M subtype B, UniProt P04578, V255I); assay: Isothermal titration calorimetry, V255I gp120; assay type: binding, HIV-1
# Protocol: as §1, §2
# [2] = biological target: HxBc2 gp120 V255I/S143N monomer (Human immunodeficiency virus type 1 group M subtype B, UniProt P04578, S143N/V255I); assay: Isothermal titration calorimetry, V255I/S143N gp120; assay type: binding, HIV-1; settings: 25 °C
# Protocol: as §1, §2
# [3] = biological target: HIV-1 HxBc2 gp120 WT monomer (Human immunodeficiency virus type 1 group M subtype B, UniProt P04578); assay: Surface plasmon resonance, WT gp120; assay type: binding
# Protocol: (§3) SPR experiments were performed on a Biacore 3000 biosensor (Global Cytiva Lifesciences) at 25 °C using PBS-P (10 mM Phosphate, 150 mM NaCl, pH 7.4, 0.005% P-20) as the running buffer. A CM5 sensor chip was docked and derivatized by amine coupling with HIV-1HxBc2 WT and mutant gp120 subunits using freshly prepared 1:1 50 mM NHS (N-hydroxysuccinamide):200 mM EDC (1-ethyl-3-(3-(dimethylamino)propyl) carbodiimide). […] The equilibrium dissociation constant was calculated as KD = k−1/k1.
# (§4) Rate constants k1 and k-1 are defined as they are in the 1:1 binding model, while k2 and k-2 are first order rate constants describing isomerization and de-isomerization, respectively. Equations describing the time course of the interactions can be found in Additional file 1: Method S1. For the fit, it was assumed that the states Env·PT and Env·PT^∗ had the same SPR signal. Rate constants were determined using a least-squares gradient-step algorithm coded in Visual Basic and implemented through Microsoft Excel.
# [4] = biological target: HIV-1 HxBc2 gp120 V255I monomer (Human immunodeficiency virus type 1 group M subtype B, UniProt P04578, V255I); assay: Surface plasmon resonance, V255I gp120; assay type: binding
# Protocol: as §3, §4
# [5] = biological target: HIV-1 HxBc2 gp120 V255I/S143N monomer (Human immunodeficiency virus type 1 group M subtype B, UniProt P04578, S143N/V255I); assay: Surface plasmon resonance, V255I/S143N gp120; assay type: binding
# Protocol: as §3, §4
# CEM-GFP cells = assay: WST-1 cytotoxicity assay; assay type: cell-based
# Protocol: The cytotoxicity was determined on CEM-GFP cells via a colorimetric assay to measure the relative proliferation rates of cells in culture. […] After 18 h of incubation, the media containing compounds were discarded and treated with 10% (v/v) WST-1 (a tetrazolium salt) in fresh media for one hour at 37 °C. The cell viability was determined by measuring the absorbance at 450 nm using a Tecan Infinite F50 plate reader.
# Figure S1. […] Data represent means and standard deviations of three independent experiments performed in triplicate.
# BaL.01 viruses = tested on: BaL.01 viruses; design: method as in PMID 24330857, PMID 26331669; settings: ref [16], [21], read-out: EC50 of induced gp120 shedding; cited from earlier work
# [6] = biological target: HIV-1 HxBc2 Env S143N (HIV-1 (HxBc2 strain)) (UniProt P04578)
# [7] = biological target: HIV-1 HxBc2 Env V255T (HIV-1 (HxBc2 strain)) (UniProt P04578)
# [8] = biological target: HIV-1 HxBc2 Env V255T/S143N (HIV-1 (HxBc2 strain)) (UniProt P04578)
# [9] = biological target: HIV-1 HxBc2 gp120 V255I, monomeric (HIV-1 (HxBc2 strain)) (UniProt P04578)
# [10] = biological target: HIV-1 HxBc2 gp120 V255I/S143N, monomeric (HIV-1 (HxBc2 strain)) (UniProt P04578)
# [11] = biological target: HIV-1 NL4-3 Env S143N (HIV-1 (NL4-3 strain))
# [12] = biological target: HIV-1 NL4-3 Env V255I (HIV-1 (NL4-3 strain))
# [13] = biological target: HIV-1 NL4-3 Env V255I/S143N (HIV-1 (NL4-3 strain))
# [14] = biological target: HIV-1 NL4-3 Env V255T (HIV-1 (NL4-3 strain))
# [15] = biological target: HIV-1 NL4-3 Env V255T/S143N (HIV-1 (NL4-3 strain))
# [16] = biological target: HIV-1 HxBc2 gp120, wild type, monomeric (HIV-1 (HxBc2 strain)) (UniProt P04578); assay: ITC
# [17] = biological target: HIV-1 HxBc2 gp120, wild type, monomeric (HIV-1 (HxBc2 strain)) (UniProt P04578); assay: SPR
# [18] = biological target: HIV-1 HxBc2 gp120 V255I, monomeric (HIV-1 (HxBc2 strain)) (UniProt P04578); assay: ITC; VP-ITC, 25 °C, 1 × PBS pH 7.4; 60–100 µM PT titrated in 8 µL steps into 2–8 µM monomeric HxBc2 gp120; single site-binding model
# [19] = biological target: HIV-1 HxBc2 gp120 V255I/S143N, monomeric (HIV-1 (HxBc2 strain)) (UniProt P04578); assay: as above
# [20] = biological target: HIV-1 HxBc2 gp120 V255I, monomeric (HIV-1 (HxBc2 strain)) (UniProt P04578); assay: SPR; Biacore 3000, 25 °C, PBS-P (10 mM phosphate, 150 mM NaCl, pH 7.4, 0.005% P-20); gp120 monomers amine-coupled to CM5 chip (1800–2200 RU), analytes flowed at 50 µL/min; AAR029b and sCD4 fitted to a Langmuir 1:1 model, KR13 to a three-state binding/isomerization model
# [21] = biological target: HIV-1 HxBc2 gp120 V255I/S143N, monomeric (HIV-1 (HxBc2 strain)) (UniProt P04578); assay: as above
# [22] = de-isomerization, three-state model
# [23] = isomerization, three-state model
# [24] = V255I and V255I/S143N vs WT gp120
molecule,measurement,setting,value
CC[C@H](C)[C@H](NC(=O)[C@@H](N)CCCNC(=N)N)C(=O)N[C@@H](CC(N)=O)C(=O)N[C@@H](CC(N)=O)C(=O)N[C@H](C(=O)N1CC(n2cc([C]34[CH]5[CH]6[CH]7[CH]3[Fe]6754389%10[CH]4[CH]3[CH]8[CH]9[CH]4%10)nn2)C[C@H]1C(=O)N[C@@H](Cc1c[nH]c2ccccc12)C(=O)N[C@@H](CO)C(=O)N[C@@H](CCC(=O)O)C(=O)N[C@@H](C)C(=O)N[C@@H](CCSC)C(=O)N[C@@H](CCSC)C(=O)NCCC(=O)N[C@@H](CCC(N)=O)C(=O)NCCC(=O)N[C@@H](CS)C(N)=O)[C@@H](C)CC (stereo partly drawn) [KR13],ITC binding stoichiometry n,HxBc2 gp120 WT monomer,1.1 ± 0.01
same,ITC −TΔS,HxBc2 gp120 WT monomer,7.8 ± 3.0 kcal/mol
same,ITC binding stoichiometry n,"[1]; V255I gp120 (HxBc2), 25 °C",1.0 ± 0.04
same,ITC −TΔS,"[1]; V255I gp120 (HxBc2), 25 °C",2.9 ± 1.5 kcal/mol
same,absolute impact of V255I substitution on enthalpy (ΔH) and entropy (TΔS),"[1]; mutant vs wild type gp120, ITC",5 to 7 kcal/mol
same,ITC binding stoichiometry n,[2],1.1 ± 0.08
same,ITC −TΔS,[2],1.9 ± 0.93 kcal/mol
same,SPR k1,[3]; PT association,2.9 (M^−1 s^−1) × 10^–5
same,SPR k-1,[3]; PT dissociation,9.6 (s^−1) × 10^3
same,SPR k-2,[3]; [22],0.25 (s^−1) × 10^3
same,SPR k2,[3]; [23],7.0 (s^−1) × 10^3
same,"disruption of affinity by escape mutations, SPR",[4]; [24],four to sixfold
same,"effect of escape mutations on de-isomerization kinetics, SPR",[4]; [24],three to fourfold
same,SPR k1,"[4]; V255I gp120, PT association",2.3 (M^−1 s^−1) × 10^–5
same,SPR k-1,"[4]; V255I gp120, PT dissociation",14 (s^−1) × 10^3
same,SPR k-2,"[4]; V255I gp120, de-isomerization, three-state model",0.72 (s^−1) × 10^3
same,SPR k2,"[4]; V255I gp120, isomerization, three-state model",8.4 (s^−1) × 10^3
same,SPR k1,[5]; PT association,2.8 (M^−1 s^−1) × 10^–5
same,SPR k-1,[5]; PT dissociation,18 (s^−1) × 10^3
same,SPR k-2,[5]; [22],1.0 (s^−1) × 10^3
same,SPR k2,[5]; [23],9.0 (s^−1) × 10^3
same,concentration above which cytotoxicity was noted,CEM-GFP cells; 18 h,above 25 μM
same,cells dying,CEM-GFP cells; at a concentration of 125 μM,~ 30%
same,EC50,BaL.01 viruses,32 nM
"KR13, linear peptide triazole thiol",IC50 of inhibition of single-round infection of HOS.T4.X4 cells by HIV-1 pseudotyped with HxBc2 Env (luciferase),[6],1.4 nM
same,IC50 of inhibition of single-round infection of HOS.T4.X4 cells by HIV-1 pseudotyped with HxBc2 Env (luciferase),[7],330 nM
same,IC50 of inhibition of single-round infection of HOS.T4.X4 cells by HIV-1 pseudotyped with HxBc2 Env (luciferase),[8],7100 nM
same,IC50 of inhibition of single-round infection of HOS.T4.X4 cells by HIV-1 pseudotyped with HxBc2 Env (luciferase),[9],91 nM
same,IC50 of inhibition of single-round infection of HOS.T4.X4 cells by HIV-1 pseudotyped with HxBc2 Env (luciferase),[10],4600 nM
same,IC50 of inhibition of single-round infection of HOS.T4.X4 cells by HIV-1 pseudotyped with NL4-3 Env (luciferase),[11],3.5 nM
same,IC50 of inhibition of single-round infection of HOS.T4.X4 cells by HIV-1 pseudotyped with NL4-3 Env (luciferase),[12],120 nM
same,IC50 of inhibition of single-round infection of HOS.T4.X4 cells by HIV-1 pseudotyped with NL4-3 Env (luciferase),[13],3700 nM
same,IC50 of inhibition of single-round infection of HOS.T4.X4 cells by HIV-1 pseudotyped with NL4-3 Env (luciferase),[14],360 nM
same,IC50 of inhibition of single-round infection of HOS.T4.X4 cells by HIV-1 pseudotyped with NL4-3 Env (luciferase),[15],6200 nM
same,Kd,[16],16 nM
same,dH,[16],-19 kcal/mol
same,stoichiometry N,[16],1.1
same,Kd,[17],1.1 nM
same,k1 (association step of the three-state model),[17],290000 M⁻¹ s⁻¹
same,k2 (isomerization step of the three-state model),[17],0.007 s⁻¹
same,k-1 (dissociation step of the three-state model),[17],0.0096 s⁻¹
same,k-2 (de-isomerization step of the three-state model),[17],0.00025 s⁻¹
same,dH,[18],-13 kcal/mol
same,stoichiometry N,[18],1
same,dH,[19],-12 kcal/mol
same,stoichiometry N,[19],1.1
same,k1 (association step of the three-state model),[20],230000 M⁻¹ s⁻¹
same,k2 (isomerization step of the three-state model),[20],0.0084 s⁻¹
same,k-1 (dissociation step of the three-state model),[20],0.014 s⁻¹
same,k-2 (de-isomerization step of the three-state model),[20],0.00072 s⁻¹
same,k1 (association step of the three-state model),[21],280000 M⁻¹ s⁻¹
same,k2 (isomerization step of the three-state model),[21],0.009 s⁻¹
same,k-1 (dissociation step of the three-state model),[21],0.018 s⁻¹
same,k-2 (de-isomerization step of the three-state model),[21],0.001 s⁻¹
